In the MegaScale stability set (Tsuboyama et al. 2023):

B1: 2K2A (parent)
chain: ELREAFRLYDKEGNGYISTDVMREILAELDETLSSEDLDAMIDEIDADGSGTVDFEEFMGVMT

Variants of: B1
Test: folding stability dG (cDNA display proteolysis); higher = more stable
Details: PBS, room temperature

| Variant | folding stability dG [kJ/mol] |
| --- | --- |
| ELREAFRLYDKEGNGYISTDVMREILAELDETLSSEDLDAMVDEIDADGSGTVDFEEFMGVMT [I42V] | 5.61 |
| ELREAFRLYDKEGNGYISTDVMREILAELDETLSSEDLDAMQDEIDADGSGTVDFEEFMGVMT [I42Q] | -1.02 |
| ELREAFRLYDKEGNGYISTDVMREILAELDETLSSEDLDAMRDEIDADGSGTVDFEEFMGVMT [I42R] | -3.84 |
| ELREAFRLYDKEGNGYISTDVMREILAELDETLSSEDLDAMSDEIDADGSGTVDFEEFMGVMT [I42S] | -0.414 |
| ELREAFRLYDKEGNGYISTDVMREILAELDETLSSEDLDAMYDEIDADGSGTVDFEEFMGVMT [I42Y] | -0.393 |
| ELREAFRLYDKEGNGYISTDVMREILAELDETLSSEDLDAMPDEIDADGSGTVDFEEFMGVMT [I42P] | -3.09 |
| ELREAFRLYDKEGNGYISTDVMREILAELDETLSSEDLDAMTDEIDADGSGTVDFEEFMGVMT [I42T] | 1.64 |
| ELREAFRLYDKEGNGYISTDVMREILAELDETLSSEDLDAMWDEIDADGSGTVDFEEFMGVMT [I42W] | 0.92 |
| ELREAFRLYDKEGNGYISTDVMREILAELDETLSSEDLDAMIDERDADGSGTVDFEEFMGVMT [I45R] | 0.661 |
| ELREAFRLYDKEGNGYISTDVMREILAELDETLSSEDLDAMIDEMDADGSGTVDFEEFMGVMT [I45M] | 8.05 |
| ELREAFRLYDKEGNGYISTDVMREILAELDETLSSEDLDAMIDEADADGSGTVDFEEFMGVMT [I45A] | 6.52 |
| ELREAFRLYDKEGNGYISTDVMREILAELDETLSSEDLDAMIDEHDADGSGTVDFEEFMGVMT [I45H] | 2.78 |
| ELREAFRLYDKEGNGYISTDVMREILAELDETLSSEDLDAMIDEFDADGSGTVDFEEFMGVMT [I45F] | 5.06 |
| ELREAFRLYDKEGNGYISTDVMREILAELDETLSSEDLDAMIDEPDADGSGTVDFEEFMGVMT [I45P] | -1.53 |
| ELREAFRLYDKEGNGYISTDVMREILAELDETLSSEDLDAMIDEQDADGSGTVDFEEFMGVMT [I45Q] | 0.464 |
| ELREAFRLYDKEGNGYISTDVMREILAELDETLSSEDLDAMIDETDADGSGTVDFEEFMGVMT [I45T] | 2.99 |
| ELREAFRLYDKEGNGYISTDVMREILAELDETLSSEDLDAMIDENDADGSGTVDFEEFMGVMT [I45N] | -0.473 |
| ELREAFRLYDKEGNGYISTDVMREILAELDETLSSEDLDAMIDEKDADGSGTVDFEEFMGVMT [I45K] | -0.803 |
| ELREAFRLYDKEGNGYISTDVMREILAELDETLSSEDLDAMIDEWDADGSGTVDFEEFMGVMT [I45W] | 5.53 |
| ELREAFRLYDKEGNGYISTDVMREILAELDETLSSEDLDAMIDEGDADGSGTVDFEEFMGVMT [I45G] | 1.55 |
| ELREAFRLYDKEGNGYISTDVMREILAELDETLSSEDLDAMIDESDADGSGTVDFEEFMGVMT [I45S] | 1.51 |
| ELREAFRLYDKEGNGYISTDVMREILAELDETLSSEDLDAMIDELDADGSGTVDFEEFMGVMT [I45L] | 7.27 |

| Variant | folding stability dG [kJ/mol] |
| --- | --- |
| ELREAFRLYDKEGNGYISTDVMREILAELDETLSSEDLDAMIDEVDADGSGTVDFEEFMGVMT [I45V] | 6.56 |
| ELREAFRLYDKEGNGYISTDVMREILAELDETLSSEDLDAMIDECDADGSGTVDFEEFMGVMT [I45C] | 3.28 |
| ELREAFRLYDKEGNGYISTDVMREILAELDETLSSEDLDAMIDEYDADGSGTVDFEEFMGVMT [I45Y] | 4.41 |
| ELREAFRLYDKEGNGYISTDVMREILAELDETLSSEDLDAMIDEIPADGSGTVDFEEFMGVMT [D46P] | -0.649 |
| ELREAFRLYDKEGNGYISTDVMREILAELDETLSSEDLDAMIDEIRADGSGTVDFEEFMGVMT [D46R] | 3.34 |
| ELREAFRLYDKEGNGYISTDVMREILAELDETLSSEDLDAMIDEICADGSGTVDFEEFMGVMT [D46C] | 3.57 |
| ELREAFRLYDKEGNGYISTDVMREILAELDETLSSEDLDAMIDEITADGSGTVDFEEFMGVMT [D46T] | 3.46 |
| ELREAFRLYDKEGNGYISTDVMREILAELDETLSSEDLDAMIDEIFADGSGTVDFEEFMGVMT [D46F] | 3.04 |
| ELREAFRLYDKEGNGYISTDVMREILAELDETLSSEDLDAMIDEIHADGSGTVDFEEFMGVMT [D46H] | 3.4 |
| ELREAFRLYDKEGNGYISTDVMREILAELDETLSSEDLDAMIDEIGADGSGTVDFEEFMGVMT [D46G] | 2.43 |
| ELREAFRLYDKEGNGYISTDVMREILAELDETLSSEDLDAMIDEIAADGSGTVDFEEFMGVMT [D46A] | 3.59 |
| ELREAFRLYDKEGNGYISTDVMREILAELDETLSSEDLDAMIDEIWADGSGTVDFEEFMGVMT [D46W] | 2.63 |
| ELREAFRLYDKEGNGYISTDVMREILAELDETLSSEDLDAMIDEIVADGSGTVDFEEFMGVMT [D46V] | 4.12 |
| ELREAFRLYDKEGNGYISTDVMREILAELDETLSSEDLDAMIDEIEADGSGTVDFEEFMGVMT [D46E] | 2.43 |
| ELREAFRLYDKEGNGYISTDVMREILAELDETLSSEDLDAMIDEINADGSGTVDFEEFMGVMT [D46N] | 6.1 |
| ELREAFRLYDKEGNGYISTDVMREILAELDETLSSEDLDAMIDEIQADGSGTVDFEEFMGVMT [D46Q] | 2.78 |
| ELREAFRLYDKEGNGYISTDVMREILAELDETLSSEDLDAMIDEISADGSGTVDFEEFMGVMT [D46S] | 4.03 |
| ELREAFRLYDKEGNGYISTDVMREILAELDETLSSEDLDAMIDEIYADGSGTVDFEEFMGVMT [D46Y] | 2.71 |
| ELREAFRLYDKEGNGYISTDVMREILAELDETLSSEDLDAMIDEIIADGSGTVDFEEFMGVMT [D46I] | 3.33 |
| ELREAFRLYDKEGNGYISTDVMREILAELDETLSSEDLDAMIDEILADGSGTVDFEEFMGVMT [D46L] | 3 |
| ELREAFRLYDKEGNGYISTDVMREILAELDETLSSEDLDAMIDEIKADGSGTVDFEEFMGVMT [D46K] | 3.54 |
| ELREAFRLYDKEGNGYISTDVMREILAELDETLSSEDLDAMIDEIMADGSGTVDFEEFMGVMT [D46M] | 2.71 |

| Variant | folding stability dG [kJ/mol] |
| --- | --- |
| ELREAFRLYDKEGNGYISTDVMREILAELDETLSSEDLDAMIAEIDADGSGTVDFEEFMGVMT [D43A] | 9.59 |
| ELREAFRLYDKEGNGYISTDVMREILAELDETLSSEDLDAMIKEIDADGSGTVDFEEFMGVMT [D43K] | 9.46 |
| ELREAFRLYDKEGNGYISTDVMREILAELDETLSSEDLDAMIFEIDADGSGTVDFEEFMGVMT [D43F] | 8.91 |
| ELREAFRLYDKEGNGYISTDVMREILAELDETLSSEDLDAMICEIDADGSGTVDFEEFMGVMT [D43C] | 8.78 |
| ELREAFRLYDKEGNGYISTDVMREILAELDETLSSEDLDAMIYEIDADGSGTVDFEEFMGVMT [D43Y] | 9.02 |
| ELREAFRLYDKEGNGYISTDVMREILAELDETLSSEDLDAMIVEIDADGSGTVDFEEFMGVMT [D43V] | 8.18 |
| ELREAFRLYDKEGNGYISTDVMREILAELDETLSSEDLDAMIMEIDADGSGTVDFEEFMGVMT [D43M] | 9.7 |
| ELREAFRLYDKEGNGYISTDVMREILAELDETLSSEDLDAMIWEIDADGSGTVDFEEFMGVMT [D43W] | 9.04 |
| ELREAFRLYDKEGNGYISTDVMREILAELDETLSSEDLDAMIEEIDADGSGTVDFEEFMGVMT [D43E] | 8.48 |
| ELREAFRLYDKEGNGYISTDVMREILAELDETLSSEDLDAMINEIDADGSGTVDFEEFMGVMT [D43N] | 9.19 |
| ELREAFRLYDKEGNGYISTDVMREILAELDETLSSEDLDAMIHEIDADGSGTVDFEEFMGVMT [D43H] | 9.04 |
| ELREAFRLYDKEGNGYISTDVMREILAELDETLSSEDLDAMIPEIDADGSGTVDFEEFMGVMT [D43P] | 2.33 |
| ELREAFRLYDKEGNGYISTDVMREILAELDETLSSEDLDAMIGEIDADGSGTVDFEEFMGVMT [D43G] | 7.82 |
| ELREAFRLYDKEGNGYISTDVMREILAELDETLSSEDLDAMITEIDADGSGTVDFEEFMGVMT [D43T] | 7.9 |
| ELREAFRLYDKEGNGYISTDVMREILAELDETLSSEDLDAMIIEIDADGSGTVDFEEFMGVMT [D43I] | 8.55 |
| ELREAFRLYDKEGNGYISTDVMREILAELDETLSSEDLDAMIREIDADGSGTVDFEEFMGVMT [D43R] | 9.84 |
| ELREAFRLYDKEGNGYISTDVMREILAELDETLSSEDLDAMILEIDADGSGTVDFEEFMGVMT [D43L] | 9.32 |
| ELREAFRLYDKEGNGYISTDVMREILAELDETLSSEDLDAMIQEIDADGSGTVDFEEFMGVMT [D43Q] | 9.07 |
| ELREAFRLYDKEGNGYISTDVMREILAELDETLSSEDLDAMISEIDADGSGTVDFEEFMGVMT [D43S] | 9.13 |
| ELREAFRLYDKEGNGYISTDVMREILAELDETLSSEDLDAMIDRIDADGSGTVDFEEFMGVMT [E44R] | 9.05 |
| ELREAFRLYDKEGNGYISTDVMREILAELDETLSSEDLDAMIDSIDADGSGTVDFEEFMGVMT [E44S] | 8.47 |
| ELREAFRLYDKEGNGYISTDVMREILAELDETLSSEDLDAMIDCIDADGSGTVDFEEFMGVMT [E44C] | 9.14 |

| Variant | folding stability dG [kJ/mol] |
| --- | --- |
| ELREAFRLYDKEGNGYISTDVMREILAELDETLSSEDLDAMIDWIDADGSGTVDFEEFMGVMT [E44W] | 9.16 |
| ELREAFRLYDKEGNGYISTDVMREILAELDETLSSEDLDAMIDQIDADGSGTVDFEEFMGVMT [E44Q] | 8.62 |
| ELREAFRLYDKEGNGYISTDVMREILAELDETLSSEDLDAMIDMIDADGSGTVDFEEFMGVMT [E44M] | 8.97 |
| ELREAFRLYDKEGNGYISTDVMREILAELDETLSSEDLDAMIDFIDADGSGTVDFEEFMGVMT [E44F] | 9.06 |
| ELREAFRLYDKEGNGYISTDVMREILAELDETLSSEDLDAMIDGIDADGSGTVDFEEFMGVMT [E44G] | 7.72 |
| ELREAFRLYDKEGNGYISTDVMREILAELDETLSSEDLDAMIDTIDADGSGTVDFEEFMGVMT [E44T] | 8.08 |
| ELREAFRLYDKEGNGYISTDVMREILAELDETLSSEDLDAMIDPIDADGSGTVDFEEFMGVMT [E44P] | 2.93 |
| ELREAFRLYDKEGNGYISTDVMREILAELDETLSSEDLDAMIDNIDADGSGTVDFEEFMGVMT [E44N] | 8.16 |
| ELREAFRLYDKEGNGYISTDVMREILAELDETLSSEDLDAMIDDIDADGSGTVDFEEFMGVMT [E44D] | 7.37 |
| ELREAFRLYDKEGNGYISTDVMREILAELDETLSSEDLDAMIDIIDADGSGTVDFEEFMGVMT [E44I] | 8.66 |
| ELREAFRLYDKEGNGYISTDVMREILAELDETLSSEDLDAMIDYIDADGSGTVDFEEFMGVMT [E44Y] | 8.43 |
| ELREAFRLYDKEGNGYISTDVMREILAELDETLSSEDLDAMIDHIDADGSGTVDFEEFMGVMT [E44H] | 8.61 |
| ELREAFRLYDKEGNGYISTDVMREILAELDETLSSEDLDAMIDLIDADGSGTVDFEEFMGVMT [E44L] | 9.18 |
| ELREAFRLYDKEGNGYISTDVMREILAELDETLSSEDLDAMIDVIDADGSGTVDFEEFMGVMT [E44V] | 8.39 |
| ELREAFRLYDKEGNGYISTDVMREILAELDETLSSEDLDAMIDAIDADGSGTVDFEEFMGVMT [E44A] | 8.87 |
| ELREAFRLYDKEGNGYISTDVMREILAELDETLSSEDLDAMIDKIDADGSGTVDFEEFMGVMT [E44K] | 8.95 |
| ELREAFRLYDKEGNGYISTDVMREILAELDETLSSEDLDAMIDEIDEDGSGTVDFEEFMGVMT [A47E] | 5.84 |
| ELREAFRLYDKEGNGYISTDVMREILAELDETLSSEDLDAMIDEIDCDGSGTVDFEEFMGVMT [A47C] | 8.24 |
| ELREAFRLYDKEGNGYISTDVMREILAELDETLSSEDLDAMIDEIDDDGSGTVDFEEFMGVMT [A47D] | 4.44 |
